# Reference: patent publication CN117836322A
# Where a chain is given by its changes, count along the chain named.
# B1: Cv2.3194 IgG1 (antibody)
# heavy: EVQLVESGGGLIQPGGSLRLSCAASGITVTSNYMSWVRQAPGKGLEWVSVIYPGGSTFYADSVKGRFTISRDNSKNTLYLQMNSLRAEDTAVYYCARDLVVYGMDVWGQGTTVTVSSASTKGPSVFPLAPSSKSTSGGTAALGCLVKDYFPEPVTVSWNSGALTSGVHTFPAVLQSSGLYSLSSVVTVPSSSLGTQTYICNVNHKPSNTKVDKKVEPKSCDKTHTCPPCPAPELLGGPSVFLFPPKPKDTLMISRTPEVTCVVVDVSHEDPEVKFNWYVDGVEVHNAKTKPREEQYNSTYRVVSVLTVLHQDWLNGKEYKCKVSNKALPAPIEKTISKAKQPREPQVYTLPPSRDELTKNQVSLTCLVKGFYPSDIAVEWESNGQPENNYKTTPPVLDSDGSFFLYSKLTVDKSRWQQGNVFSCSVMHEALHNHYTQKSLSLSPGK
# light: EIVLTQSPGTLSLSPGERATLSCRASQSVSSSYLAWYQQKPGQAPRLLIYGASSRATGIPGRFSGSGSGTDFTLTISRLEPEDFAIYYCQQGVTFGGGTKVEIKRTVAAPSVFIFPPSDEQLKSGTASVVCLLNNFYPREAKVQWKVDNALQSGNSQESVTEQDSKDSTYSLSSTLTLSKADYEKHKVYACEVTHQGLSSPVTKSFNRGEC
# B2: Cv2.3235 IgG1 (antibody)
# heavy: B1 heavy with I27F, T30S, S31R, P53S, L99G, V100D, V101Y
# light: DIQMTQSPSFLSASVGDRVTITCRASQGISSFLAWYQQKPGKAPKLLIYGASTLQSGVTSRFSGSGSGTEFTLTISSLQPEDFATYYCQRLDSYPPITFGQGTRLEIKRTVAAPSVFIFPPSDEQLKSGTASVVCLLNNFYPREAKVQWKVDNALQSGNSQESVTEQDSKDSTYSLSSTLTLSKADYEKHKVYACEVTHQGLSSPVTKSFNRGEC
# B3: Cv2.5213 IgG1 (antibody)
# heavy: B1 heavy with I27F, T30S, V50L, P53S, F58Y, V100N, V101Y, T111A
# light: not shown
# B4: Cv2.1353 IgG1 (antibody)
# heavy: EVQLVESGGGLVQPGGSLRLSCAASGVTVSSNYMNWVRQAPGKGLEWVSVIYSGGSTFYADSVKGRFIISRDNSKNTLYLQMNSLKTEDTAVYYCARDLGPMGFDIWGQGTMVTVSSASTKGPSVFPLAPSSKSTSGGTAALGCLVKDYFPEPVTVSWNSGALTSGVHTFPAVLQSSGLYSLSSVVTVPSSSLGTQTYICNVNHKPSNTKVDKKVEPKSCDKTHTCPPCPAPELLGGPSVFLFPPKPKDTLMISRTPEVTCVVVDVSHEDPEVKFNWYVDGVEVHNAKTKPREEQYNSTYRVVSVLTVLHQDWLNGKEYKCKVSNKALPAPIEKTISKAKQPREPQVYTLPPSRDELTKNQVSLTCLVKGFYPSDIAVEWESNGQPENNYKTTPPVLDSDGSFFLYSKLTVDKSRWQQGNVFSCSVMHEALHNHYTQKSLSLSPGK
# light: DIQMTQSPSFLSASVGDRVTITCRASQGISSYLAWYQQKPGKAPKLLIYAASTLQSGVPSRFSGSGSGTEFTLTISSLQPEDFATYYCQQLNSDPPVTFGPGTKVDIKRTVAAPSVFIFPPSDEQLKSGTASVVCLLNNFYPREAKVQWKVDNALQSGNSQESVTEQDSKDSTYSLSSTLTLSKADYEKHKVYACEVTHQGLSSPVTKSFNRGEC
# Target: SARS-CoV-2 RBD结构域 (wild type) (SARS-CoV-2)
# Experiment: SPR (Biacore), antibody coupled to CM5 chip, viral protein as analyte, 25°C
# Conditions: remark: other sources report otherwise
row,Binder,Kd
1,B1,< 1000 nM
2,B2,< 1000 nM
3,B3,< 1000 nM
4,B4,< 1000 nM
